The chains are these.
B1: ARS2^171–270+408–763 (domain or fragment, human)
chain 1: RYNDYKLDFRRQQMQDFFLAHKDEEWFRSKYHPDEVGKRRQEARGALQNRLRVFLSLMETGWFDNLLLDIDKADAIVKMLDAAVIKMEGGTENDLRILEQ
chain 2: GLECKPRPLHKTCSLFMRNIAPNISRAEIISLCKRYPGFMRVALSEPQPERRFFRRGWVTFDRSVNIKEICWNLQNIRLRECELSPGVNRDLTRRVRNINGITQHKQIVRNDIKLAAKLIHTLDDRTQLWASEPGTPPLPTSLPSQNPILKNITDYLIEEVSAEEEELLGSSGGAPPEEPPKEGNPAEINVERDEKLIKVLDKLLLYLRIVHSLDYYNTCEYPNEDEMPNRCGIIHVRGPMPPNRISHGEVLEWQKTFEEKLTPLLSVRESLSEEEAQKMGRKDPEQEVEKFVTSNTQELGKDKWLCPLSGKKFKGPEFVRKHIFNKHAEKIEEVKKEVAFFNNFLTDAKRPALPE
notes: human ARS2 (SRRT) isoform-e, residues 171-270, cloned into pETM11; human ARS2 (SRRT) isoform-e, residues 408-763, cloned for co-expression into pDUET and pET15b; Two co-expressed fragments of one protein that fold into one core; also called crystallised core; source: E. coli Rosetta 2, two fragments co-expressed, purified; not shown: His6, N-terminal, cleaved
B5: full-length NCBP3 (residues 1–620) (natural protein, human, UniProt Q53F19-1 1-620, looked up)
chain: MAAVRGLRVSVKAEAPAGPALGLPSPEAESGVDRGEPEPMEVEEGELEIVPVRRSLKELIPDTSRRYENKAGSFITGIDVTSKEAIEKKEQRAKRFHFRSEVNLAQRNVALDRDMMKKAIPKVRLETIYICGVDEMSTQDVFSYFKEYPPAHIEWLDDTSCNVVWLDEMTATRALINMSSLPAQDKIRSRDASEDKSAEKRKKDKQEDSSDDDEAEEGEVEDENSSDVELDTLSQVEEESLLRNDLRPANKLAKGNRLFMRFATKDDKKELGAARRSQYYMKYGNPNYGGMKGILSNSWKRRYHSRRIQRDVIKKRALIGDDVGLTSYKHRHSGLVNVPEEPIEEEEEEEEEEEEEEEEDQDMDADDRVVVEYHEELPALKQPRERSASRRSSASSSDSDEMDYDLELKMISTPSPKKSMKMTMYADEVESQLKNIRNSMRADSVSSSNIKNRIGNKLPPEKFADVRHLLDEKRQHSRPRPPVSSTKSDIRQRLGKRPHSPEKAFSSNPVVRREPSSDVHSRLGVPRQDSKGLYADTREKKSGNLWTRLGSAPKTKEKNTKKVDHRAPGAEEDDSELQRAWGALIKEKEQSRQKKSRLDNLPSLQIEVSRESSSGSEAES
notes: human NCBP3, full length, residues 1-620, cloned into pFASTBac HTb; also called NCBP3^1–620; source: High Five insect cells, purified; not shown: His6, N-terminal, cleaved

Test [1] deals with CBP20 (NCBP2) (endogenous) (UniProt P52298). Description: EGFP pull down, LC–MS/MS (AP–MS, TMT labelled). The following applies: HEK 293T/17 cells; three independent affinity purifications per bait, except ARS2 wt in b (one pull down); read off a plot.
CBP20 (NCBP2) (endogenous), sequence (P52298 whole entry): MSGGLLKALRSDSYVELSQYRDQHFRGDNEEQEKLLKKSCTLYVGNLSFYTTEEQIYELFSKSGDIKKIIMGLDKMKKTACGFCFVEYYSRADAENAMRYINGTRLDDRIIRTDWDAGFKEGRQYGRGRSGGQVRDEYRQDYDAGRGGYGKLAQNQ
The target of test [2] is CBP80 (NCBP1) (endogenous) (UniProt Q09161). Description: EGFP pull down, LC–MS/MS (AP–MS, TMT labelled). The following applies: HEK 293T/17 cells; three independent affinity purifications per bait, except ARS2 wt in b (one pull down); read off a plot.
CBP80 (NCBP1) (endogenous), sequence (Q09161 whole entry): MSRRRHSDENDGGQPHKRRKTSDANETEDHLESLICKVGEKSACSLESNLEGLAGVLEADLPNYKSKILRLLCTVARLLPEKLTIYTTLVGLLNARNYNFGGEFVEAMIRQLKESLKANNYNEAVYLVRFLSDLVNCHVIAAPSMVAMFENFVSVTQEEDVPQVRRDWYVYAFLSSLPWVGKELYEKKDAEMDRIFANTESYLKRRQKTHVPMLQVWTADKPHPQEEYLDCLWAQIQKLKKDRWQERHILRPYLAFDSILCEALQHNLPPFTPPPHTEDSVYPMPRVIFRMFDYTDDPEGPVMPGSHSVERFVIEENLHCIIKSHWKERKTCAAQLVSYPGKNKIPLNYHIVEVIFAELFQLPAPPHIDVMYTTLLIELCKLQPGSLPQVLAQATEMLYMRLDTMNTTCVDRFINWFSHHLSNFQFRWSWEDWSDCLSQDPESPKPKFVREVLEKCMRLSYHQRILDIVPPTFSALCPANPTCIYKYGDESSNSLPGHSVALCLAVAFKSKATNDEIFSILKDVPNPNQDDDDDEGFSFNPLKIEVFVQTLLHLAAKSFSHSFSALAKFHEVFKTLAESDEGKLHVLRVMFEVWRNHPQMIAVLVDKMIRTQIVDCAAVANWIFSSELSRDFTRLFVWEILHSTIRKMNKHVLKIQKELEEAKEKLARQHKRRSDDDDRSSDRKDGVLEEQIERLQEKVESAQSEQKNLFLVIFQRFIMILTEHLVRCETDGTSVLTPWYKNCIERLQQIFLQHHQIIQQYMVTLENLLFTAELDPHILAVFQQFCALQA
Test [3] deals with PHAX (endogenous) (UniProt Q9H814). As to the kind of experiment: EGFP pull down, LC–MS/MS (AP–MS, TMT labelled). The following applies: HEK 293T/17 cells; three independent affinity purifications per bait, except ARS2 wt in b (one pull down); read off a plot.
PHAX (endogenous), sequence (Q9H814 whole entry): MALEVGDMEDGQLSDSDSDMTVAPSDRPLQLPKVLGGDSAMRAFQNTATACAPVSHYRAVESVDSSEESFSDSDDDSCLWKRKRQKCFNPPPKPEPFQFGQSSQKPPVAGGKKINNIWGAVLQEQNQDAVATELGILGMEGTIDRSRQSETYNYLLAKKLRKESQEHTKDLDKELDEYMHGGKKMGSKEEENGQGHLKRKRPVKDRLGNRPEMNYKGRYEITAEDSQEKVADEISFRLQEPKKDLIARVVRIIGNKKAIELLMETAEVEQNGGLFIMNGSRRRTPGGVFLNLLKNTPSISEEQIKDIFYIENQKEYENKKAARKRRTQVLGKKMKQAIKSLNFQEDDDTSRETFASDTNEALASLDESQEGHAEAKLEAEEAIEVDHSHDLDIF
The target of test [4] is B5. As to the kind of experiment: pull-down; purified recombinant NCBP3 constructs immobilised on m7GTP sepharose, incubated with CBP80 and/or wild type or mutant ARS2; eluted fractions on Coomassie-stained SDS-PAGE. The following applies: both partners purified.
Test [5] concerns the target T1, ARS2^147–270+494–763 (human, UniProt Q9BXP5-4 147-270; Q9BXP5-4 494-763).
T1 construct: human ARS2 (SRRT) isoform-e, residues 147-270, cloned into pETM11; human ARS2 (SRRT) isoform-e, residues 494-763 (lacks the RRM domain), cloned for co-expression into pDUET and pET15b; Lacks the unstructured regions and the RRM domain; source: E. coli Rosetta 2, two fragments co-expressed, purified; not shown: His6, N-terminal, cleaved
T1 sequence (looked up) 1: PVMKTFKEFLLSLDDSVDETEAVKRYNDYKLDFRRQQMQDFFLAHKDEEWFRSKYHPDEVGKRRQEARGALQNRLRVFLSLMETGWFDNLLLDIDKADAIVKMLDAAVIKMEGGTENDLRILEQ
T1 sequence (looked up) 2: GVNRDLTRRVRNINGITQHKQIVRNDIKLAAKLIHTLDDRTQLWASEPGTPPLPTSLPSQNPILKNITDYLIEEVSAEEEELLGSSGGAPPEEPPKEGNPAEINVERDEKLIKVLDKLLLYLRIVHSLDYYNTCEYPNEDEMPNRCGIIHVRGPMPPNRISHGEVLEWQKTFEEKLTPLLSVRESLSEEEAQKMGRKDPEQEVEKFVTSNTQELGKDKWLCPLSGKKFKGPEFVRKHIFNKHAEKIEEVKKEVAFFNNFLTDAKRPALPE
As to the kind of experiment: ITC; MicroCal ITC200, 25 °C, ARS2 construct with FARB; not marked high salt: 20 mM HEPES, 120 mM, 2 mM TCEP pH 7.8; single-site fit. The following applies: both partners purified. On the technique in general: ITC needs no label: the signal is the heat of the interaction.

Test [6] concerns the target T2, ARS2^147–871 (human, UniProt Q9BXP5-4 147-871).
T2 construct: human ARS2 (SRRT) isoform-e, 871 residues, residues 147-871, cloned into pETM11; also called hARS2; SRRT; source: E. coli Rosetta 2, purified (Ni-Sepharose, TEV cleavage, HiTrap Q, heparin if necessary, SEC); not shown: His6, N-terminal, cleaved
T2 sequence (looked up): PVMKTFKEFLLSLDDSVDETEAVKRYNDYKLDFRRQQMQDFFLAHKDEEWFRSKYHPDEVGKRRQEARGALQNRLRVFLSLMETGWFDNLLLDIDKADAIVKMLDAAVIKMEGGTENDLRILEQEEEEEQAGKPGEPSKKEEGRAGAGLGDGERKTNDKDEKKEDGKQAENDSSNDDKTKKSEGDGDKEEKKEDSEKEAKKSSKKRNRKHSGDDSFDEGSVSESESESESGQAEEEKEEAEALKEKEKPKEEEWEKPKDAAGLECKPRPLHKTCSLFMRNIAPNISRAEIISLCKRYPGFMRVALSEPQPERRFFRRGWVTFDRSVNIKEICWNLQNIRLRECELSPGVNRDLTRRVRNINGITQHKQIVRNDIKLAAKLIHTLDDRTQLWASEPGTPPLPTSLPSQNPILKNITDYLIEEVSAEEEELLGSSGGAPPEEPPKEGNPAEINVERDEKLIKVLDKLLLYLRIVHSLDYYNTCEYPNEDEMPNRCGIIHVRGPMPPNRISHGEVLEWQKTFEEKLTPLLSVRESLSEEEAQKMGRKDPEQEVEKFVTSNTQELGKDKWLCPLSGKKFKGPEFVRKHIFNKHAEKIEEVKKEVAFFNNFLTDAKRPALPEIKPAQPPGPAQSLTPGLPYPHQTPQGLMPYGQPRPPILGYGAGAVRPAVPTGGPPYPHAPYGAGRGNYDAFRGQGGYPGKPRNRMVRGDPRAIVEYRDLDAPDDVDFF
As to the kind of experiment: ITC; MicroCal ITC200, 25 °C, ARS2 constructs with FLASH peptides; high salt (HS): buffer containing 250 mM NaCl; single-site fit; which partner was injected is not told. The following applies: both partners purified.

The target in test [7] is B1. The description is as above. The following applies: both partners purified.
For test [8], the target named is T2, ARS2^147–871. Description: ITC; MicroCal ITC200, 25 °C, ARS2 constructs with NCBP3 1–282; buffer containing 250 mM NaCl; injections of 2.5 µL. The following applies: both partners purified.
Test [9] has as its target T3, GST-tagged ARS2^147–871 (human, UniProt Q9BXP5-4 147-871).
T3 construct: human ARS2 (SRRT) isoform-e, residues 147-871; The cloning of the GST fusion is not described; also called GST-ARS2; source: E. coli Rosetta 2 (said of all constructs but full-length NCBP3); held on glutathione sepharose
T3 sequence (looked up): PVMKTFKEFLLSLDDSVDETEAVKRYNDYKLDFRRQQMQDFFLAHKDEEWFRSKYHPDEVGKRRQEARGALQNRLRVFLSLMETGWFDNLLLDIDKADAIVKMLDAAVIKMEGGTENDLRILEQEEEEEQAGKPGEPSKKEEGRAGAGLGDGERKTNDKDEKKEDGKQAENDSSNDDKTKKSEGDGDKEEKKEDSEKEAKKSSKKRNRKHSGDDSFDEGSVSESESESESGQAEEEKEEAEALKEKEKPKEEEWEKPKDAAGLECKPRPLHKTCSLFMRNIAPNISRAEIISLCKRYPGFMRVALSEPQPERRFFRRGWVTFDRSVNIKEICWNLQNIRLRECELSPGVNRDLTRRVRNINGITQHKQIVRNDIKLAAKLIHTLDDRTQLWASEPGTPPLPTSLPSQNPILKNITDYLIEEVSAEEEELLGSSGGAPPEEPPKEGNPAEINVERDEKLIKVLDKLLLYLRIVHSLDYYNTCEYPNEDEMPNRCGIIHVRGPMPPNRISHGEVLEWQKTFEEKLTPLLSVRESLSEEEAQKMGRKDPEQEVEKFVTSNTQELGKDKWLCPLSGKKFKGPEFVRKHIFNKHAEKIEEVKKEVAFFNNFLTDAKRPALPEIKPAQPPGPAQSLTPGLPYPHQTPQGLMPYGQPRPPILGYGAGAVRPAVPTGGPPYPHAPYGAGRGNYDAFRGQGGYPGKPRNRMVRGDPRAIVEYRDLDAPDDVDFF
Description: pull-down; GST-tagged ARS2 147–871 on glutathione sepharose, NCBP3 constructs added, in the absence of the cap analogue. The following applies: both partners purified.

For test [10], the target named is T2, ARS2^147–871. Description: SEC; purified proteins mixed, Superdex 200, 120 mM NaCl, 1 mM TCEP, 20 mM HEPES pH 7.8; in the absence of m7GTP; fractions on SDS-PAGE. The following applies: both partners purified. (SEC sorts molecules by how far they enter the pores of the column.)

In the case of “EGFP–ARS2 wt (from UniProt Q9BXP5-4) R854A; R859A; F871A”, the other: log2 (fold change) is -3.9 in test [1], -4 in test [2] and -2.6 in test [3].

For the molecule B1, the binding result in [4] is listed as “binds”.

B2: FARB (FLASH–ARS2-binding region) peptide of FLASH, residues 931–943 (peptide)
peptide: DELEEGEIRSDSE
notes: FLASH (FLICE-associated huge protein), residues 931-943; also called FLASH^931–943; source: synthetic peptide, bought: GeneScript
With B2, the results for the Kd in test [5], in test [6] and in test [7] were 500 nM, 5.1 µM and 3.8 µM, respectively.

B3: FLASH^921–946 peptide (peptide, UniProt Q9UKL3 921-946, looked up)
peptide: EADTCKNSPLDELEEGEIRSDSETSK
notes: FLASH (FLICE-associated huge protein), residues 921-946, holds FARB (931-943); source: synthetic peptide, bought: GeneScript
Regarding B3, the dissociation constant Kd (commonly a measure of binding affinity in units of concentration) in test [6] came out at 5.5 µM.

B4: NCBP3^1–282 (domain or fragment, human, UniProt Q53F19-1 1-282, looked up)
chain: MAAVRGLRVSVKAEAPAGPALGLPSPEAESGVDRGEPEPMEVEEGELEIVPVRRSLKELIPDTSRRYENKAGSFITGIDVTSKEAIEKKEQRAKRFHFRSEVNLAQRNVALDRDMMKKAIPKVRLETIYICGVDEMSTQDVFSYFKEYPPAHIEWLDDTSCNVVWLDEMTATRALINMSSLPAQDKIRSRDASEDKSAEKRKKDKQEDSSDDDEAEEGEVEDENSSDVELDTLSQVEEESLLRNDLRPANKLAKGNRLFMRFATKDDKKELGAARRSQYYMK
notes: cloned into pETM11; also called N-terminal region of NCBP3; source: E. coli Rosetta 2, purified; not shown: His6, N-terminal, cleaved
Take B4: the binding result in [8] and in [9] was “binds” in each case.

Regarding B5, the binding result in test [9] and in [10] was “binds” in each case.

B6: ARS2^147–270+408–763ΔloopB (domain or fragment, human)
chain 1: PVMKTFKEFLLSLDDSVDETEAVKRYNDYKLDFRRQQMQDFFLAHKDEEWFRSKYHPDEVGKRRQEARGALQNRLRVFLSLMETGWFDNLLLDIDKADAIVKMLDAAVIKMEGGTENDLRILEQ
chain 2: GLECKPRPLHKTCSLFMRNIAPNISRAEIISLCKRYPGFMRVALSEPQPERRFFRRGWVTFDRSVNIKEICWNLQNIRLRECELSPGVNRDLTRRVRNINGITQHKQIVRNDIKLAAKLIHTLDDRTQLWASEPGTPPLPTSLPSQNPILKNITDYLIEEGSGSGSERDEKLIKVLDKLLLYLRIVHSLDYYNTCEYPNEDEMPNRCGIIHVRGPMPPNRISHGEVLEWQKTFEEKLTPLLSVRESLSEEEAQKMGRKDPEQEVEKFVTSNTQELGKDKWLCPLSGKKFKGPEFVRKHIFNKHAEKIEEVKKEVAFFNNFLTDAKRPALPE
notes: human ARS2 (SRRT) isoform-e, residues 147-270; human ARS2 (SRRT) isoform-e, from 408 to E567, before the deleted loop B; linker that replaces loop B (568-598); human ARS2 (SRRT) isoform-e, from E599 to 763, after the deleted loop B; the crystallisation methods print ∆566–598GSGSGS; also called ARS2^147–270+408–763Δ568–598 (Δloop B); Human ARS2 147-270+408-763 Δloop B: Δ568–598 E567–GSGSGS–E599; …
Take B6: the binding result in test [4] is listed as “binds”.
